{"source": "patent US20130315910A1", "about": "(Xencor, published 2013);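 on Fold vs WT IgG1 (off-rate): fold improvement over WT IgG1 so higher means slower dissociation than WT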", "key": {"mFcγRIIb": {"target": "T1, mFcγRIIb (Mus musculus, UniProt P08101)", "T1 construct": "extracellular region, C-terminal His- and GST-tag; also called mouse FcγRII", "T1 sequence (receptor extracellular region, looked up)": "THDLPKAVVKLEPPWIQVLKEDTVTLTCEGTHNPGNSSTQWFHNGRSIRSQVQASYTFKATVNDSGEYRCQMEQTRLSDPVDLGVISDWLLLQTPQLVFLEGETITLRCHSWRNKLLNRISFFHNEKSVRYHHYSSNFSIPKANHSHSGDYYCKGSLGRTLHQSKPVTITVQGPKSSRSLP", "experiment": "SPR"}, "mFcγRIV": {"target": "T2, mFcγRIV", "T2 construct": "also called mouse FcγRIV; not shown: C-terminal His and GST tags (named only on our card)", "T2 chain": "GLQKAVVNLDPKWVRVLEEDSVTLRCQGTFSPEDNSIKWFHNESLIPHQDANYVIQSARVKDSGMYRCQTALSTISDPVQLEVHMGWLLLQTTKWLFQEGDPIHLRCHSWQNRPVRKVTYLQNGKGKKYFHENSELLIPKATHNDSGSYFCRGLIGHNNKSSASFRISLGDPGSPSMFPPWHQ", "experiment": "SPR"}, "cynoFcγRIIb": {"target": "T3, cynoFcγRIIb (Macaca fascicularis, UniProt A0A140HDP4)", "T3 construct": "extracellular region, C-terminal His- and GST-tag; also called cynomolgus monkey FcγRIIb", "T3 sequence (receptor extracellular region)": "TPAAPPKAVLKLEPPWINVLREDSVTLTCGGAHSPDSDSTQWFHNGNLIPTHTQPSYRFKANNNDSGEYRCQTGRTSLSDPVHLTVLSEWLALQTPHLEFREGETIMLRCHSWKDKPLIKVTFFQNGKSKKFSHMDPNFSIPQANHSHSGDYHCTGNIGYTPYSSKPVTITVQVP", "experiment": "SPR"}, "cynoFcγRIIIa": {"target": "T4, cynoFcγRIIIa (Macaca fascicularis, UniProt Q8SPW2)", "T4 construct": "extracellular region, C-terminal His- and GST-tag; also called cynomolgus monkey FcγRIIIa", "T4 sequence (Q8SPW2 17-208)": "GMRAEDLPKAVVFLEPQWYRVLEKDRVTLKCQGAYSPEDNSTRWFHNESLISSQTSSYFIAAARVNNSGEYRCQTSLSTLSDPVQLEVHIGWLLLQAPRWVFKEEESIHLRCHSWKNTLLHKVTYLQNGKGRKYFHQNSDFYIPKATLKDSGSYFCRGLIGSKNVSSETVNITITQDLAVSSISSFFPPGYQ", "experiment": "SPR"}, "[1]": {"target": "T5, human FcγRIIb receptor protein (R&D Systems) (human, UniProt P31994 46-217)", "T5 construct": "Bought protein injected over captured antibody in Biacore; also called CD32b", "T5 sequence (looked up)": "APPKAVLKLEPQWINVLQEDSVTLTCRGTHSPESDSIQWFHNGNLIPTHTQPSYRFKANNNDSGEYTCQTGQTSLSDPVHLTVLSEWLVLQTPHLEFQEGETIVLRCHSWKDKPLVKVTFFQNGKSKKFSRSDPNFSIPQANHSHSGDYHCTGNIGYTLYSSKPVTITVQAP", "experiment": "Biacore SPR, Kd(native IgG1)/Kd(variant)"}, "[2]": {"target": "T5, human FcγRIIb receptor protein (R&D …)", "experiment": "Biacore SPR, antibody captured on protein A/G chip, FcγR injected"}, "[3]": {"target": "T6, human FcγRIIb on cells (transfected HEK293T cells; primary human B cells) (human, UniProt P31994 43-310)", "T6 construct": "whole, on cells; also called CD32b", "T6 sequence (looked up)": "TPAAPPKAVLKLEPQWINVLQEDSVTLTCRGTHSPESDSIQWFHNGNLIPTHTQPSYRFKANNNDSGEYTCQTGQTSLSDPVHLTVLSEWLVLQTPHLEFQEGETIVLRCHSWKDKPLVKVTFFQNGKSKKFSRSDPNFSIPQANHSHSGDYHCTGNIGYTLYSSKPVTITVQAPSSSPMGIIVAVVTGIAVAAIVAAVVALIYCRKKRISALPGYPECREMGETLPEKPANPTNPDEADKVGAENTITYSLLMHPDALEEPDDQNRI", "experiment": "flow cytometry on FcγRIIb-transfected 293T cells [top left panel]", "method": "(§1) In order to validate the Biacore data and evaluate receptor binding of the variants on the cell surface, binding of select antibodies to cells expressing FcγRIIb was measured. […] HEK293T cells in DMEM with 10% FBS were transfected with human FcγRIIb cDNA in pCMV6 expression vector (Origene Technologies, Rockville, Md.), cultured for 3 days, harvested, washed twice in PBS, resuspended in PBS with 0.1% BSA (PBS/BSA), and aliquoted at 2×10^5 cells per well into 96-well microtiter plates. Fc variant antibodies were serially diluted in PBS/BSA then added to the cells and incubated with mixing for 1 h at room temperature. After extensive washing with PBS/BSA, phycoerythrin (PE)-labeled anti-human-Fab-specific goat F(ab′)2 fragment was added for detection. Cells were incubated for 30 min at room temperature, washed, and resuspended in PBS/BSA. Binding was evaluated using a FACSCanto II flow cytometer (BD Biosciences, San Jose, Calif.), and the mean fluorescence intensity (MFI) was plotted as a function of antibody concentration using Graph Pad Prism software (GraphPad Software, San Diego, Calif.) from which half-maximal binding (EC50) values were determined by sigmoidal dose response modeling."}, "[4]": {"target": "T6, human FcγRIIb on cells (transfected …)", "experiment": "flow cytometry on FcγRIIb-transfected 293T cells [middle left panel]", "method": "as §1"}, "[5]": {"target": "T6, human FcγRIIb on cells (transfected …)", "experiment": "flow cytometry on FcγRIIb-transfected 293T cells [bottom right panel]", "method": "as §1"}, "[6]": {"target": "T6, human FcγRIIb on cells (transfected …)", "experiment": "flow cytometry on FcγRIIb-transfected 293T cells [middle right panel]", "method": "as §1"}}, "data": [{"binder": "anti-CD19 antibody HuAM4G7 IgG1 S267E (antibody, Positions in EU numbering; copies: 2 + 2) heavy: not shown light: DIVMTQSPATLSLSPGERATLSCRSSKSLQNVNGNTYLYWFQQKPGQSPQLLIYRMSNLNSGVPDRFSGSGSGTEFTLTISSLEPEDFAVYYCMQHLEYPITFGAGTKLEIKRTVAAPSVFIFPPSDEQLKSGTASVVCLLNNFYPREAKVQWKVDNALQSGNSQESVTEQDSKDSTYSLSSTLTLSKADYEKHKVYACEVTHQGLSSPVTKSFNRGEC", "values": [{"measurement": "Fold vs WT IgG1 (off-rate)", "setting": "mFcγRIIb", "result": 1.44, "unit": "fold"}, {"measurement": "Fold vs WT IgG1 (off-rate)", "setting": "mFcγRIV", "result": 0.77, "unit": "fold"}, {"measurement": "Fold vs WT IgG1 (off-rate)", "setting": "cynoFcγRIIb", "result": 1.09, "unit": "fold"}, {"measurement": "Fold vs WT IgG1 (off-rate)", "setting": "cynoFcγRIIIa", "result": 0.515, "unit": "fold"}, {"measurement": "fold affinity relative to native IgG1", "setting": "[1]", "result": 20.4, "unit": "fold"}, {"measurement": "Kd", "setting": "[2]", "result": 71.9, "unit": "nM"}, {"measurement": "EC50 (read off the curve)", "setting": "[3]", "result": "~0.01", "unit": "µg/mL"}, {"measurement": "EC50 (read off the curve)", "setting": "[4]", "result": "~0.03", "unit": "µg/mL"}, {"measurement": "EC50 (read off the curve)", "setting": "[5]", "result": "~0.02", "unit": "µg/mL"}, {"measurement": "EC50 (read off the curve)", "setting": "[6]", "result": "~0.03", "unit": "µg/mL"}]}]}
